This passage reports fold stronger with negatively supercoiled pBR322 than without DNA, Ka and koff results from publication PMC3201873.

For experiment [1], the target named is full-length GyrB from M. tuberculosis (M. tuberculosis). In words: far-Western, overlay or dot blot.
Experiment [2] has as its target GyrA–SBP (GyrA fused to a Streptavidin-Binding Peptide) (M. tuberculosis) (UniProt P9WG47). In words: SPR. Background: Surface plasmon resonance follows binding to a sensor surface in real time, without labels.

Chain of full-length GyrB from M. tuberculosis (M. tuberculosis) (A5TY73 whole entry, the tested form may be a part): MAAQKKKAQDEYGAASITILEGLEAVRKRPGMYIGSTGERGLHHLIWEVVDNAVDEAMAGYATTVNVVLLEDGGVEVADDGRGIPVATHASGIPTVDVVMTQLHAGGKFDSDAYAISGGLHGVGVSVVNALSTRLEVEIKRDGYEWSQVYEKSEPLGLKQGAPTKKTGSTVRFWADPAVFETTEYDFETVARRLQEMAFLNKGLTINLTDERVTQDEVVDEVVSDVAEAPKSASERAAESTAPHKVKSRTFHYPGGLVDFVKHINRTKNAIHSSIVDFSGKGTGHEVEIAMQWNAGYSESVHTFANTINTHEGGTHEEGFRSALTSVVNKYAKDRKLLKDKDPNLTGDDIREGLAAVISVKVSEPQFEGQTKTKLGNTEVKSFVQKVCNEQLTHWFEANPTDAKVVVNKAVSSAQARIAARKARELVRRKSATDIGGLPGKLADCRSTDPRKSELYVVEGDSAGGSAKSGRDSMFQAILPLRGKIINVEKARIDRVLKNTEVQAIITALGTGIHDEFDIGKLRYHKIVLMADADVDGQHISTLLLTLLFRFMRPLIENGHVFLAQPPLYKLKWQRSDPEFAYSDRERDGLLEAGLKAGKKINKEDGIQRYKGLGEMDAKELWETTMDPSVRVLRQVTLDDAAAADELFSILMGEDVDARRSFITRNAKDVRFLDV

On to “GyrA–SBP (GyrA fused to a Streptavidin-Binding Peptide) (from UniProt P9WG47 1-838) (natural protein)”, for which the fold stronger with negatively supercoiled pBR322 than without DNA in experiment [1] stood at 9 fold.
For “full-length GyrB from M. tuberculosis (natural protein)”, in experiment [2], the Ka is 6.2e+07 M⁻¹ and the koff – broadly, a measure of how fast the partners let go of each other – was 0.00101 s⁻¹.
